# T1: 재조합 인간 TIGIT 단백질 (Acro Biosystems) (human, UniProt Q495A1 22-141)
# T1 construct: Bought recombinant protein; also called recombinant human TIGIT; TIGIT 항원
# T1 sequence: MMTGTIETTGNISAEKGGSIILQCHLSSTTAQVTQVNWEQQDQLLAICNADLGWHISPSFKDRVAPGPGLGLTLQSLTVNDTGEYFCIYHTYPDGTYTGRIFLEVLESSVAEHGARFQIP
# B1: 항-TIGIT 항체 7A6 (7A6_VH3/Vk5) (antibody, human IgG1, kappa, V domains shown)
# VH: QVQLQESGPGLVKPSQTLSLTCTVTGYSITSDYAWNWIRQPPGKGLEWMGYISYSGSARYNPSLKSRVTISRDTSKNQFSLKLSSVTAEDTATYYCARKGYPAYFAYWGQGTLVTVSS
# VL: DIQMTQSPSSLSASVGDRVSITCKASQDVSTAVAWYQQKPGQAPRLLIYSASYRYTGVPDRFSGSGSGTDFTLTISSLQPEDFATYYCQHHYSTPYTFGQGTKLEIKR
# notes: Parental IgG1/kappa antibody without RS15; also called 7A6 VH3/Vκ5; Parental Ab (7A6)
# Biological target: T1, 재조합 인간 TIGIT 단백질 (Acro Biosystems)
# Assay: SPR, Biacore T200 multi-cycle kinetics, 25C; antibody captured on anti-human IgG CM5 chip, recombinant human TIGIT as analyte; 1:1 model
binder,measurement,value
B1,Kd,0.884 nM
same,koff,0.00158 s⁻¹
same,kon,1.78e+06 M⁻¹ s⁻¹
